{"source": "patent US20260008830A1", "about": "(FUNDACI CENTRE DE REGULACI GEN MICA, published 2026)", "binders": {"B1": {"name": "3dlq. Pdb sequence-Hydrophobic core stabilised protein (IL-22hydC) (ligand)", "chain": "ARLDKSNFQQPYITNRMFMLAKEMSLADNNTDVRLIGEKLFHGVSMSERCYLMKQILNFMLEEVLFPQSDRFQPYMQEVVPFLARLSNRLSTCHIEGDDLHIQRNVQKLKDTVKKLGELGEIKAIGELDLLFMSLRNACI"}, "B2": {"name": "mutantE_IL22 (A132Y, D43E, S45R, E77Y, T70I, K61W, S64M) (ligand)", "chain": "APISSHCREDRSNFQQPYITNRTFMLAWEAMLADNNIDVRLIGYKLFHGVSMSERCYLMKQVLNFTLEEVLFPQSDRFQPYMQEVVPFLYRLSNRLSTCHIEGDDLHIQRNVQKLKDTVKKLGESGEIKAIGELDLLFMSLRNACI"}, "B3": {"name": "mutantD_IL22 (K61W, S64M) (ligand)", "chain": "B2 chain with E9L, R11K, I37T, Y44E, Y90A"}, "B4": {"name": "foldikine-22_1 (SCIL22_1) (ligand)", "chain": "GCRLDKSNFQQPYITNRTFMLAKEASLADNNTDVRLIGEKLFHGVSMSERCYLMKQVLNFTLEEVLFPQSDRFQPYMQEVVPFLARLSNRLSTCMPGGSKTHIQRNVQKLKDTVKKLGESGEIKAIGELDLLFMSLRNACIANGTLDKSNFQQPYITNRTFMLAKEASLADNNTDVRLIGEKLFHGVSMSERCYLMKQVLNFTLEEVLFPQSDRFQPYMQEVVPFLARLSNRLSRLELLPHIQRNVQKLKDTVKKLGESGEIKAIGELDLLFMSLRNACI"}, "B5": {"name": "foldikine-22_3 (SCIL22_3) (ligand)", "chain": "GVRLDKSNFQQPYITNRTFMLAKEASLADNNTDVRLIGEKLFHGVSMSERCYLMKQVLNFTLEEVLFPQSDRFQPYMQEVVPFLARLSNRLKKLMASSDHIQRNVQKLKDTVKKLGESGEIKAIGELDLLFMSLRNACIANGTLDKSNFQQPYITNRTFMLAKEASLADNNTDVRLIGEKLFHGVSMSERCYLMKQVLNFTLEEVLFPQSDRFQPYMQEVVPFLARLSNRLSRLELLPHIQRNVQKLKDTVKKLGESGEIKAIGELDLLFMSLRNACI"}, "B6": {"name": "ORK2-007 (foldikine-2, two 7 aa InterLinkers GPPPPPG) (ligand)", "chain": "LRPRDLISNINVIVLELKGSETTFMCEYADETATIVEFLNRWITFCQSIISTLTGPPPPPGTKKTQLQLEHLLLDLQMILNGINNYKNPKLTRMLTFKFYMPKKATELKHLQCLEEELKPLEEVLNLAQSKNFHLRPRDLISNINVIVLELKGSETTFMCEYADETATIVEFLNRWITFCQSIISTLTGPPPPPGTKKTQLQLEHLLLDLQMILNGINNYKNPKLTRMLTFKFYMPKKATELKHLQCLEEELKPLEEVLNLAQS"}, "B7": {"name": "ORK2-008 (foldikine-2, two 8 aa InterLinkers GPPPPPPG) (ligand)", "chain": "LRPRDLISNINVIVLELKGSETTFMCEYADETATIVEFLNRWITFCQSIISTLTGPPPPPPGTKKTQLQLEHLLLDLQMILNGINNYKNPKLTRMLTFKFYMPKKATELKHLQCLEEELKPLEEVLNLAQSKNFHLRPRDLISNINVIVLELKGSETTFMCEYADETATIVEFLNRWITFCQSIISTLTGPPPPPPGTKKTQLQLEHLLLDLQMILNGINNYKNPKLTRMLTFKFYMPKKATELKHLQCLEEELKPLEEVLNLAQS"}, "B8": {"name": "ORK2-009 (foldikine-2, two 6 aa InterLinkers GGGSGG) (ligand)", "chain": "LRPRDLISNINVIVLELKGSETTFMCEYADETATIVEFLNRWITFCQSIISTLTGGGSGGTKKTQLQLEHLLLDLQMILNGINNYKNPKLTRMLTFKFYMPKKATELKHLQCLEEELKPLEEVLNLAQSKNFHLRPRDLISNINVIVLELKGSETTFMCEYADETATIVEFLNRWITFCQSIISTLTGGGSGGTKKTQLQLEHLLLDLQMILNGINNYKNPKLTRMLTFKFYMPKKATELKHLQCLEEELKPLEEVLNLAQS"}, "B9": {"name": "ORK2-010 (foldikine-2, two 7 aa InterLinkers GGGSGGG) (ligand)", "chain": "B6 chain with P56G, P57G, P58S, P59G, P60G, P190G, P191G, P192S, P193G, P194G"}, "B10": {"name": "ORK2-011 (foldikine-2, two 8 aa InterLinkers GGGSGGGG) (ligand)", "chain": "LRPRDLISNINVIVLELKGSETTFMCEYADETATIVEFLNRWITFCQSIISTLTGGGSGGGGTKKTQLQLEHLLLDLQMILNGINNYKNPKLTRMLTFKFYMPKKATELKHLQCLEEELKPLEEVLNLAQSKNFHLRPRDLISNINVIVLELKGSETTFMCEYADETATIVEFLNRWITFCQSIISTLTGGGSGGGGTKKTQLQLEHLLLDLQMILNGINNYKNPKLTRMLTFKFYMPKKATELKHLQCLEEELKPLEEVLNLAQS"}, "B11": {"name": "IL22_WT (IL-22 WT expressed in CHO cells) (ligand)", "chain": "B2 chain with E9L, R11K, W28K, M31S, I37T, Y44E, Y90A"}, "B12": {"name": "ORK22-012 (Foldikine-22, two InterLinkers GGPPPPPPGG) (ligand)", "chain": "APISESGEIKAIGELDLLFMSLRNACIGGPPPPPPGGAPISSHCRLDKSNFQQPYITNRTFMLAKEASLADNNTDVRLIGEKLFHGVSMSERCYLMKQVLNFTLEEVLFPQSDRFQPYMQEVVPFLARLSNRLSTCHIEGDDLHIQRNVQKLKDTVKKLGESGEIKAIGELDLLFMSLRNACIGGPPPPPPGGAPISSHCRLDKSNFQQPYITNRTFMLAKEASLADNNTDVRLIGEKLFHGVSMSERCYLMKQVLNFTLEEVLFPQSDRFQPYMQEVVPFLARLSNRLSTCHIEGDDLHIQRNVQKLKDTVKKLG"}, "B13": {"name": "ORK22-014 (Foldikine-22, two polyGly InterLinkers) (ligand)", "chain": "APISESGEIKAIGELDLLFMSLRNACIGGGGGGGGGGAPISSHCRLDKSNFQQPYITNRTFMLAKEASLADNNTDVRLIGEKLFHGVSMSERCYLMKQVLNFTLEEVLFPQSDRFQPYMQEVVPFLARLSNRLSTCHIEGDDLHIQRNVQKLKDTVKKLGESGEIKAIGELDLLFMSLRNACIGGGGGGGGGGAPISSHCRLDKSNFQQPYITNRTFMLAKEASLADNNTDVRLIGEKLFHGVSMSERCYLMKQVLNFTLEEVLFPQSDRFQPYMQEVVPFLARLSNRLSTCHIEGDDLHIQRNVQKLKDTVKKLG"}}, "assay_in_all_cases": "cell-based or functional assay", "key": {"[1]": {"molecular_target": "T1, IL-22 receptors R1 and R2 on HEK-Blue IL-22 reporter cells (UniProt Q8N6P7 16-574; Q08334 20-325, limits assumed)", "T1 sequence (looked up) 1": "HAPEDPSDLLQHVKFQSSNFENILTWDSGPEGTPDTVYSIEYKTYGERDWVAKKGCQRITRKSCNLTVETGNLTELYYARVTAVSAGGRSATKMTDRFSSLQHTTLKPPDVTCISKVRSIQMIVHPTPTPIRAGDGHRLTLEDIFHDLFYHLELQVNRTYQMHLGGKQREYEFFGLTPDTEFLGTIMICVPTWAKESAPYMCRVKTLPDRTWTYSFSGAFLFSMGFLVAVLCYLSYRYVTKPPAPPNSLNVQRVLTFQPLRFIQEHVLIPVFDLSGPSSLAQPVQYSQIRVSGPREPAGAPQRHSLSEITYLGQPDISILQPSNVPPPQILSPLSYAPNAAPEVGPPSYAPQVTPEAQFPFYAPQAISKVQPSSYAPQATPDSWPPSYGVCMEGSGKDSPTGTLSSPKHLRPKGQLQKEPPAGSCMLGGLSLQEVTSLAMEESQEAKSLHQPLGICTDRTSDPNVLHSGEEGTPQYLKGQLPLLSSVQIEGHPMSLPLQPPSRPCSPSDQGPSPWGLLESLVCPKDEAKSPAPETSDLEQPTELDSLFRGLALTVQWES", "T1 sequence (looked up) 2": "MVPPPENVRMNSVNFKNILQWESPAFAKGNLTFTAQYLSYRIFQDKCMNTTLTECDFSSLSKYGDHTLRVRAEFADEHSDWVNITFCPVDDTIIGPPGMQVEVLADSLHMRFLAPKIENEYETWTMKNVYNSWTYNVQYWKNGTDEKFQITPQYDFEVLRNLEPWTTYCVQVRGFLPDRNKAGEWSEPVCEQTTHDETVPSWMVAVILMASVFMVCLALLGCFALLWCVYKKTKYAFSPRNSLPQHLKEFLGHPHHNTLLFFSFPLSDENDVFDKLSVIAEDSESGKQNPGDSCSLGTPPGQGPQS"}, "[2]": {"molecular_target": "IL-2 receptor on IL-2 reporter HEK blue cells (Human IL-2 & IL-15 Reporter Cells, hkb-il2bg)", "sequence (P14784 whole entry, chain 1 of 2)": "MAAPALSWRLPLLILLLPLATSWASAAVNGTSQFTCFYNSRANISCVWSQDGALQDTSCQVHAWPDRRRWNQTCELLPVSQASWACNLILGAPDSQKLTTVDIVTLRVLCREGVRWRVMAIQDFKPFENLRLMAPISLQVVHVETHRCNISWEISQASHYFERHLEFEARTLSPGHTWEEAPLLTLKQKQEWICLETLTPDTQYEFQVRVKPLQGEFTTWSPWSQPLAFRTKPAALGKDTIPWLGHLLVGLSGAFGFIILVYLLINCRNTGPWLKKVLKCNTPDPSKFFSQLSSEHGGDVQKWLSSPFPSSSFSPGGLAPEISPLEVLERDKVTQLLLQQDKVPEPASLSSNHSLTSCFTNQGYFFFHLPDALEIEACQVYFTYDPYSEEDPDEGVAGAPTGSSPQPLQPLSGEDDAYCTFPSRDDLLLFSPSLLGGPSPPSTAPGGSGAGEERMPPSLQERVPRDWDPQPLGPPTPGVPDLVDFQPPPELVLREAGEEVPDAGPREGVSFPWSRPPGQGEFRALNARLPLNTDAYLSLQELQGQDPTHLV", "sequence (P31785 whole entry, chain 2 of 2, further chain)": "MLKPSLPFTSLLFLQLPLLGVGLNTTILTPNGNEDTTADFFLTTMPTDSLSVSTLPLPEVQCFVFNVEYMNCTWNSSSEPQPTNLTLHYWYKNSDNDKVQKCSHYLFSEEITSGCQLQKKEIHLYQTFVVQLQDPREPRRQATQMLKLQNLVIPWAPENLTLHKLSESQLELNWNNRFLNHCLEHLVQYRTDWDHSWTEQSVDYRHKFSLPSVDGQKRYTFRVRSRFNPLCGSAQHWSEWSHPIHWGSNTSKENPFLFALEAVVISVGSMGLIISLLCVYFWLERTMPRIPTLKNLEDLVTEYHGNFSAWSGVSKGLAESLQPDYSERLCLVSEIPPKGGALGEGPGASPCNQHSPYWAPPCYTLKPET"}, "[3]": {"molecular_target": "T1, IL-22 receptors R1 and R2 on HEK-Blue …", "remark": "listed apart in the source"}}, "note": "Residue numbers refer to the chain shown, from its start. Names and notes keep the numbering of the source.", "data": [{"binder": "B1", "values": [{"measurement": "Kd (apparent, HEK-Blue IL-22 reporter)", "setting": "[1]", "result": 5.4, "unit": "pM"}, {"measurement": "gain in affinity against IL-22 WT (HEK-Blue IL-22 reporter)", "setting": "[1]", "result": 2, "unit": "fold"}]}, {"binder": "B2", "values": [{"measurement": "increase in affinity over wt", "setting": "[1]", "result": 10, "unit": "fold"}]}, {"binder": "B3", "values": [{"measurement": "increase in affinity over wt", "setting": "[1]", "result": 2, "unit": "fold"}]}, {"binder": "B4", "values": [{"measurement": "apparent Kd in comparison with IL22 WT (HEK-Blue IL-22 reporter)", "setting": "[1]", "result": "~4", "unit": "fold"}]}, {"binder": "B5", "values": [{"measurement": "apparent Kd in comparison with IL22 WT (HEK-Blue IL-22 reporter)", "setting": "[1]", "result": "~4", "unit": "fold"}]}, {"binder": "B6", "values": [{"measurement": "EC-50 (IL-2 reporter HEK blue cells, SEAP, absorbance 630 nm)", "setting": "[2]", "result": 184, "unit": "pM"}]}, {"binder": "B7", "values": [{"measurement": "EC-50 (IL-2 reporter HEK blue cells, SEAP, absorbance 630 nm)", "setting": "[2]", "result": 251, "unit": "pM"}]}, {"binder": "B8", "values": [{"measurement": "EC-50 (IL-2 reporter HEK blue cells, SEAP, absorbance 630 nm)", "setting": "[2]", "result": 211, "unit": "pM"}]}, {"binder": "B9", "values": [{"measurement": "EC-50 (IL-2 reporter HEK blue cells, SEAP, absorbance 630 nm)", "setting": "[2]", "result": 190, "unit": "pM"}]}, {"binder": "B10", "values": [{"measurement": "EC-50 (IL-2 reporter HEK blue cells, SEAP, absorbance 630 nm)", "setting": "[2]", "result": 171, "unit": "pM"}]}, {"binder": "B11", "values": [{"measurement": "EC-50 (IL-22 reporter HEK blue cells, SEAP, absorbance 630 nm)", "setting": "[3]", "result": 97.6, "unit": "pM"}]}, {"binder": "B12", "values": [{"measurement": "EC-50 (IL-22 reporter HEK blue cells, SEAP, absorbance 630 nm)", "setting": "[3]", "result": 43.3, "unit": "pM"}]}, {"binder": "B13", "values": [{"measurement": "EC-50 (IL-22 reporter HEK blue cells, SEAP, absorbance 630 nm)", "setting": "[3]", "result": 2420, "unit": "pM"}]}]}
